Target: T1, polyphosphorylated full-length SARS-CoV-2 nucleocapsid protein pN.1-419 (SARS-CoV-2, UniProt P0DTC9 1-419)
T1 construct: also called phosphorylated N; polyphosphorylated N; not shown: His6, N-terminal, kept
Assay: SEC
Details: both partners purified

B1: untagged full-length human 14-3-3ζ (natural protein, UniProt P63104 1-245, looked up)
chain: MDKNELVQKAKLAEQAERYDDMAACMKSVTEQGAELSNEERNLLSVAYKNVVGARRSSWRVVSSIEQKTEGAEKKQQMAREYREKIETELRDICNDVLSLLEKFLIPNASQAESKVFYLKMKGDYYRYLAEVAAGDDKKGIVDQSQQAYQEAFEISKKEMQPTHPIRLGLALNFSVFYYEILNSPEKACSLAKTAFDEAIAELDTLSEESYKDSTLIMQLLRDNLTLWTSDTQGDEAEAGEGGEN
notes: human 14-3-3 protein zeta, full length, untagged; also called wild-type dimeric 14-3-3ζ
- binding result: binds

B2: full-length human 14-3-3ε (as used in the SEC titration) (natural protein, UniProt P62258 1-255, looked up)
chain: MDDREDLVYQAKLAEQAERYDEMVESMKKVAGMDVELTVEERNLLSVAYKNVIGARRASWRIISSIEQKEENKGGEDKLKMIREYRQMVETELKLICCDILDVLDKHLIPAANTGESKVFYYKMKGDYHRYLAEFATGNDRKEAAENSLVAYKAASDIAMTELPPTHPIRLGLALNFSVFYYEILNSPDRACRLAKAAFDDAIAELDTLSEESYKDSTLIMQLLRDNLTLWTSDMQGDGEEQNKEALQDVEDENQ
notes: human 14-3-3 protein epsilon, full length; Same construct as m21 (TEV-cleavable His6-tag)
- Kd: 10.7 µM
- stoichiometry N: ~1 14-3-3ε chains per pN.1-419 chain (2:2)

Reference: paper PMC7863765 (Journal of Molecular Biology, 2021)
